# Reference: US20090263375
# T1: FLAG-Star-PAP ΔPRR ½ (lacking amino acids 223-274)
# T1 chain: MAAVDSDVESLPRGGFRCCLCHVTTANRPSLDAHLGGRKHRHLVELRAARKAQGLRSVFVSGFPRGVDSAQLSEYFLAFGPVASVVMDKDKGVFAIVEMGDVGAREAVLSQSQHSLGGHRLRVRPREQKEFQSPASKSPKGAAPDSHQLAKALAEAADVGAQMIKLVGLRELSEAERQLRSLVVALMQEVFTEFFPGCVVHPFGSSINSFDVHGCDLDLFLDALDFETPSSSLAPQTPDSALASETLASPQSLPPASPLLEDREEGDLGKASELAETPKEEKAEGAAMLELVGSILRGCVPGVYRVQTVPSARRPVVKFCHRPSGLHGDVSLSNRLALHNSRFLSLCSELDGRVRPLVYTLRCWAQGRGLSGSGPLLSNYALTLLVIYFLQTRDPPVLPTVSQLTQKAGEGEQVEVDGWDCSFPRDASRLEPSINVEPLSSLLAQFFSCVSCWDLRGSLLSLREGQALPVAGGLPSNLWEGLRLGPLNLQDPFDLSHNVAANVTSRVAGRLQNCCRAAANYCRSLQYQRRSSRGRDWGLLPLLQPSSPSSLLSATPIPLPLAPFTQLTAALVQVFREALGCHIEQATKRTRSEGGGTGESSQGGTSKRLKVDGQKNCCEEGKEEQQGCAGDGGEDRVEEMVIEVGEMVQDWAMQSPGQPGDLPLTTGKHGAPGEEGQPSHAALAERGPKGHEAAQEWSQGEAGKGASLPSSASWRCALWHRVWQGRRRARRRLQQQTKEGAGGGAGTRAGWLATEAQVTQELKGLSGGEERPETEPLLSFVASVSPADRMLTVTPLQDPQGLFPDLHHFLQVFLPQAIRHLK
# T2: Flag-Star-PAP (full length)
# T2 chain: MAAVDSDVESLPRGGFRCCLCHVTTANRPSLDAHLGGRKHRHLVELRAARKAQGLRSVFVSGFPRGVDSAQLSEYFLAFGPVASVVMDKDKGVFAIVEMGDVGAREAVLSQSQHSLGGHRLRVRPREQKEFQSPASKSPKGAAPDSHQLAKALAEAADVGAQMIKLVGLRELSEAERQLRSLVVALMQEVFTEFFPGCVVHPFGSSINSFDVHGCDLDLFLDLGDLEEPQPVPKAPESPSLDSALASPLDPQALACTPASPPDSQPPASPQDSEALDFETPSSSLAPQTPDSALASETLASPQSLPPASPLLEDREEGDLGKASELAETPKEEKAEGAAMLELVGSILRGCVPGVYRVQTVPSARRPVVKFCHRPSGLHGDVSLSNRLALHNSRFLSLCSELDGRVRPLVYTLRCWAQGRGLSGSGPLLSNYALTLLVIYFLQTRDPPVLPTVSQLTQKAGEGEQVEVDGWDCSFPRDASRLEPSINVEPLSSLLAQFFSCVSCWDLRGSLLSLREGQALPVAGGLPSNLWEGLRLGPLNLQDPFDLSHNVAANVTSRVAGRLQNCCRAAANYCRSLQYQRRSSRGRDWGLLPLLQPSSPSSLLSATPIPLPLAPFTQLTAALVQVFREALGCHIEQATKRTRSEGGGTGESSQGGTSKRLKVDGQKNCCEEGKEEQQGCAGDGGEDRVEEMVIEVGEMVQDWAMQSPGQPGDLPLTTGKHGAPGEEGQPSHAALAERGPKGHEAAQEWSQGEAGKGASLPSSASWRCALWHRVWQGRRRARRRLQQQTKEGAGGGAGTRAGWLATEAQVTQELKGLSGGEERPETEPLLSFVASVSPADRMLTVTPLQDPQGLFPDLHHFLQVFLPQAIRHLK
# What was measured:
# [1] = target: T1, FLAG-Star-PAP ΔPRR ½ (lacking amino …)
# [2] = target: T2, Flag-Star-PAP (full length)
protein,measurement,setting,value
FLAG-CKIα (wild type) (protein) MASSSGSKAEFIVGGKYKLVRKIGSGSFGDIYLAINITNGEEVAVKLESQKARHPQLLYESKLYKILQGGVGIPHIRWYGQGKDYNVLVMDLLGPSLEDLFNFCSRRFTMKTVLMLADQMISRIEYVHTKNFIHRDIKPDNFLMGIGRHCNKLFLIDFGLAKKYRDNRTRQHIPYREDKNLTGTARYASINAHLGIEQSRRDDMESLGYVLMYFNRTSLPWQGLKAATKKQKYEKISEKKMSTPVEVLCKGFPAEFAMYLNYCRGLRFEEAPDYMYLRQLFRILFRTLNHQYDYTFDWTMLKQKAAQQAASSSGQGQQAQTPTGF,in vitro kinase assay: phosphorylation of FLAG-Star-PAP truncation and deletion mutants,[1],"CKIα was able to phosphorylate all truncation mutants except those which lacked the first half of the proline rich region (ΔPRR ½, amino acids 223-274)"
same,in vitro kinase assay: phosphorylation of heat inactivated FLAG-Star-PAP,[2],Purified FLAG-CKIα was able to directly phosphorylate heat inactivated Star-PAP
